# Experimental data as given in the RNAGym collection of RNA variant scans (doi:10.1073/pnas.2313332121).
# B1: TPR t1 (parent)
# chain: GACCAAUCUGCCCUCAGAGCUCGAGAACAUCUUCGGAUGCAGAGGAGGCAGGCUUCGGUGGCGCGAUAGCGCCAACGUCCUCAACCUCCAAUGCAUCCCACCACAUGAUGAUGCCUGAAGAGCCUUGGUUUUUUG
# Variants of: B1
# Assay: polymerase ribozyme fitness, log enrichment relative to wild type (log ratio); higher = more active; in vitro selection for triplet polymerase activity
# Method in brief: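 Each subunit of a heterodimeric triplet polymerase ribozyme was mutagenized into a library by PCR, transcribed, and subjected to one round of in vitro selection, run in triplicate. Libraries were annealed with a biotinylated primer, the partner subunit and triplets, incubated frozen at −7 °C, and extended constructs were gel-excised, captured on streptavidin beads and recovered by RT-PCR. Input and output libraries were sequenced on Illumina, keeping genotypes with ≥10 input reads and ≥1 read per output. Fitness is log base 2 of genotype enrichment divided by wild-type enrichment, from inverse-variance-weighted replicate averages.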
row,Variant,polymerase ribozyme fitness (log ratio)
1,GACCAAGCUGCCCUCAGAGCUCGAGAACAUCUUCGGAUGCAGAGGAGGCAGGCUUCGGUGGCGCGAUAGCGCCAACGUCCUCAACCUCCAAUGCAUCCCACCAAAUGAUGAUGCCUGAAGAGCCUUGGUUUUUUG,-2.23
2,GACCAAGCUGCCCUCAAAGCUCGAGAACAUCUUCGGAUACAGAGGAGGCAGGCUACGGUGGCGCGAUAGCGCCAACGUCCUGAACCUCCAAUGCAUCCCACCACAUGAUGAUGCAUGAAGAGCCUUGGUCUUUUG,-2.79
3,GACCAAGCUGCCCUCAGAGCUCGAGAACAUCUUCGGAUGCAGAGGAGGCAGGCUUCGGUGGCGCGAUAGCGCCAACGUCCUCAACCUCCAAUGGAUCCCACCACAUGAUGAUGCCUGAAGAGCCUUGGUUUUUUG,-0.426
4,GACCAAGCUUCCCUCAGAGCUCGAGAACAUCUUCGGAUGCAGAGGAGGCAGGCUUCGGUGGCGCGAUAGCGCCAACGCCCUCAACCUCCAAUGCAUCCCAACACAUGAUGAUGCCUGAAGAACCUUGGUUUUUUG,-1.81
5,GACCAAGCUGCCCUCAGAGCUCGAGAACAACUUCGGAUGCAGAGGAGGCAGGCUUCGGUGGCGCGAUAGCGCCAACGUCCUCAACCUCCAAUGCAUCCCAUCACAUGAAGAUGCCUGAAGAGCAUUGGUUUUUUG,-3.51
6,GACCAAGCUGCCCUCAGAGCUCGAGAACAUCGUCGGAUGCAGAGGAGGCAGGCUUCGGUGGCGCGAUAGCGCCAACGUCCUCAACCUCCAAUGCAUCACACCACAUGAUGAUGCCUGAAGAGCCUUGGUUUUUUG,-5.15
7,GACCAAGCUGCCCUCAGAGCUCGAGAACAUCUUCGGAUGCAGAGGAGGCAGGCUUCGGUGGCGCGAUAGCGCCAACGUCCUCAACCUCCAAUGCAUCCCACCACAUGACGAUGCCUGAAGAGCCUUGGUUUUUUG,-3.87
8,GACCAAGCUGCCCUCAGAGCUCGAGAACAUCUUCGGAUGCAGAGGAGGCAGGCUGCGGUGGCGCGAUAGCGCCAACGUCCUUAACCUCCAAUGCAUCCCACCACAUGAUGAUGCCUGAAGAGCCUUGGUUUUUUG,0.425
9,GACCAAGCUGCCCUCAGAGCUCGAGAACAUCUUCGGAUGCAGAGGAGGCAUGCUUCGGUUGCGCGAUAGCGCCAACGUCCUCAACCUCCAAUGCAUCCCACCACAUGAUGCUGCCUGAAGAGCCUUGGUUUUUUG,-2.64
10,GACCAAGCUGCCCUCAGAGCUCGAGAACAUCUUCGGAUGCAGAGCAGGCAGCCUUCGGUGGCGCGAUAGCGCCAACGUUCUCAACCUCCAAUGCAUCCCACAACAUGAUGAUGCCUGAAGAGCCUUGGUUUUUUG,-3.37
11,GACCAAGCUGCCCUCAGAGCUCGAGAACAUCUUCGGAUGCAGAGGAGGCAGGCUUCGGUGGCGCGAUAGCGCCAACCUCCUCAACCUCCAAUGCAUCCCACCACAUGAUGAUGCCUGAAGAGCCUUGGUUUUUUG,0.424
12,GACCAAGCUGCCCUCAGAGCUCGAGAACAUCUUCGGAUGCAGAGGAGGCAGGCUUCGGUGUCGCGAUAGGGCCAACGUCCUCAACCUCCAAUGCAUCCCACCACAUGAUGAUGCCUGAAGAGCCUUGGUUUUUUG,-5.24
13,GACCAAGCUGCCCUCAGAGCUCCAGAACAUCUUCGGAUGCAGAGGAGGCAGGCUUCGGUGGCGCGAUAGCGCCAACGUCCUUAACGUCCAAUGCAUCCCACCACAUGAUCAUGCCUGAAGAGCCUUGGUUUUUUG,-7.53
14,GACCAAGCUGCCCUCAGAGCUCGAGAACAUCUUCGGAUGCAGAGGAGGCAGGCUUCGGUGGCGCGAUAGCGCCAACGUCCUCAACCUCCAAUGCAUCCCACCACAUGAUGAUGCCUGAAGAGCCUUGGAUUUUUG,-0.778
15,GACCAAUAUGCCCUCAGGGCUCGAGAACAUCUUCGGAUGCAGAGGAGGCAGGCUUCGGUGGCGCGAUAGCGCCAACGUCCUCAACCUCCAAUGCAUCCCACCACAUGACGAUGCAUGAAGAGCCUUGGUUUUUUG,-5.42
16,GACCAAGCUGCCCUCAGAGCUCGAGAACAUCUUCGGAUGCAGAGGAGGCAGGCUUCGGUGGCGCGAUAGCGCCAACGUCCUCAACCUCCAAUGCAUCCCACCACAUGAUGAUGCCUGAACAGCCUUGGUUUUUUG,0.815
17,GACCAAGCUGCCCUCAGAGCUCGAGAACAUCUUCGGAUGCAGAGGAGGCAGUCUUCGGUGGCGUGAUAGCGCCAACGUCCUCAACCUCCAAUGCAUCCCACCACAUGAUGAUGCCUGAAGAGGCUUGGUUUUUUG,1.52
18,GACCAAUAUGCCCUCAGCGCGCGAGAACAUCUUCGGAUGCAGAGGAGGCAGGCUUCGGUGGCGCGAUAGCGCCAACGUCCUCAACCUCCAAUGCAUCCCACCACAUGAUGAUGCCUGAAGAGCCUUGGUUUUUUG,-4.13
19,GACCAAGCUGCCCUCAGAGCUCAAGAACAUCUUCGGAUGCAGAGGAGGCAGGCUUCGGUGGCGCGAUAGCGCCAACGUCCUCAACCUCCAAUGCAUCCCACCACAUGAUGAUGCCUGAAGAGCCUUGGUUUUUUG,-4.28
20,GACCAAGCUGCCCUCAGAGCUCGAGAACAUCUUCGGAUGCAAAGGAGGCAGGCUUCGGUGGCGCGAUAGCGCCAACGUCCACAACCUCCAAUGCAUCCCACCACAUGAAGAUGCCUGAAGAGCCUUGGUCUUUUG,-5.79
21,GACCAAGCUGCCCUCAGAGCUCGAGAACAUCUUCGGAUGCAGAGGAGGCAGGCUUCGGAGGCGCGAUAGCGCCAACGUCCUCAACCUCCAAUGCAUCCCACCACAUGAUGAUGCCUGAAGAGCCUUGGUGUUUUG,-0.396
